Experimental data reported in paper PMC3658131.

Biological target: Bd-cys-S-fluorescein conjugate (Staphylococcus aureus)
Assay: ELISA

Substance	net absorbance at 405 nm (net absorbance (405 nm))
HRP-conjugated rabbit IgG (antibody)	1.13
HRP-conjugated guinea pig IgG (antibody)	0.91
